In patent US20130115220A1, “METHOD FOR PREVENTION OR TREATMENT OF METABOLIC SYNDROME” (DAINIPPON SUMITOMO PHARMA CO., LTD., priority 2010, published 2013):

System: 3T3-L1 preadipocytes
Assay: Differentiation of 3T3-L1 preadipocytes into mature adipocytes, lipid droplet formation by oil-red-O
Format: cell-based
Details: human rAIM used for AIM loading
Method: To examine the function of AIM produced by macrophage that infiltrated into adipose tissue on the surrounding adipocytes, an experiment was performed to load AIM in the culture process for differentiation of 3T3-L1 preadipocytes into mature adipocytes.
As AIM, recombinant AIM protein (rAIM) of mouse was used. rAIM was prepared by culturing human-derived HEK293T cells transfected with a vector expressing mouse AIM (pCAGGS-mAIM-HA plasmid) in a serum-free medium (FreeStyle™ 293 Expression Medium; Invitrogen). rAIM was purified from the culture supernatant thereof using an anti-HA antibody column. In other Reference Examples shown below, AIM used was a similar rAIM protein. AIM was loaded by adding AIM to a culture medium at a concentration of 5 μg/ml.
In addition, differentiation of 3T3-L1 cells was induced as shown in FIG. 13 by first proliferating 3T3-L1 cells by cultivating for 4 days (day(−2)-day 2), after which cultivating in a culture medium containing insulin, dexamethasone (DEX) and isobutylmethylxanthine (IBMX) for 2 days (day 2-day 4) to start differentiation induction stimulation, and further cultivating in a culture medium containing insulin for 2 days (day 4-day 6).
After the differentiation induction stimulation period (day 2-day 6), the cells were continuously cultured in a culture medium free of such differentiation induction stimulation factors. Then, the cells on day 10 day from the start of the differentiation induction stimulation (day 12) were stained with oil-red-O, and the state of differentiation of 3T3-L1 cells into mature adipocytes was observed.

B1: human rAIM: human AIM protein labeled with HA-tag produced in HEK293T cells (protein)
chain: SPSGVRLVGGLHRCEGRVEVEQKGQWGTVCDDGWDIKDVAVLCRELGCGAASGTPSGILYEPPAEKEQKVLIQSVSCTGTEDTLAQCEQEEVYDCSHDEDAGASCENPESSFSPVPEGVRLADGPGHCKGRVEVKHQNQWYTVCQTGWSLRAAKVVCRQLGCGRAVLTQKRCNKHAYGRKPIWLSQMSCSGREATLQDCPSGPWGKNTCNHDEDTWVECEDPFDLRLVGGDNLCSGRLEVLHKGVWGSVCDDNWGEKEDQVVCKQLGCGKSLSPSFRDRKCYGPGVGRIWLDNVRCSGEEQSLEQCQHRFWGFHDCTHQEDVAVICSG
modifications: left off: small tags and cut ends
notes: human AIM protein labeled with HA-tag produced in HEK293T cells
differentiation of mouse-derived 3T3-L1 cells: similarly suppressed
